Reference: patent US8524227B2, “Anti-IL-TIF antibodies” (ZymoGenetics, Inc., priority 2002, dated 2013)
Each block holds one molecule with its values, some of them ahead of it.

How the values were obtained:
[1] = DSS-induced colitis mouse model; format: in vivo, mice; details: for histopathology screening score: 4% DSS in drinking water
Excerpt: Colitis was induced by DSS ingestion in Swiss Webster female mice from Charles River Laboratories. The mice were 10 and 11 weeks old at the start of the study. Mice were given 4% DSS in the drinking water for a period of 6 days (treated mice), or were given only normal drinking water (control mice). A Disease Activity Index clinical score (DAI) was used, which comprises a combination of measurements including stool quality, occult blood and weight loss. DAI was obtained daily for each mouse beginning one day after DSS treatment. After 6 days, DSS was removed from the drinking water of the treated mice. All mice were monitored by DAI clinical score until sacrifice at either 2, 7 or 10 days from the start of the study. On each of days 2 and 7, four DSS-treated mice and one control mouse were sacrificed. On day 10, four DSS-treated mice and two control mice were sacrificed. For all animals after sacrifice, the colon length was measured. Colon sections were fixed in 10% neutral buffered formalin for histologic analysis or frozen for mRNA extraction.
Histologic index scores were obtained following the method in reference 1. Generally, the colon sections were scored blinded by a pathologist for crypt scores, hyperplastic epithelium, crypt distortion and inflammation.
Daily, each mouse was graded as to a clinical score based on weight loss, stool consistence and intestinal bleeding. Higher scores were assigned for increasing amounts of weight loss, diarrhea and bleeding. The daily score for each mouse was the mean grade obtained from the three results/observations.

IL-TIF [2] = molecular target: T1, IL-TIF (Homo sapiens, UniProt Q9GZX6); assay: Effect of zcytor16 on IL-TIF-induced acanthosis; format: in vivo, mice; details: for Average Acanthosis: day 8, score 0-3
T1 construct: made in house; host or cells: BHK cells
T1 sequence (Q9GZX6 34-179): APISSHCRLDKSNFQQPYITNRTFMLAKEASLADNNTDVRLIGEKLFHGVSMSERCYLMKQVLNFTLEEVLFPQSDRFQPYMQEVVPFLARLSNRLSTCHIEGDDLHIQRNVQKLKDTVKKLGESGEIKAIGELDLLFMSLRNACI
Protocol: Mice (female, C3H/HEJ, 8 weeks old; Jackson Labs, Bar Harbor, Me.) were divided into eight groups of eight animals each. IL-TIF was administered by constant infusion via mini-osmotic pumps, as described in example 32a. Alzet mini-osmotic pumps (model 2001; Alza corporation Palo Alto, Calif.) were loaded under sterile conditions with IL-TIF protein (A#601F, 0.22 mL) diluted in phosphate buffered saline (pH 7.0) to a concentration within the pump of 0.22 mg/mL for group 1-2 mice, 0.45 mg/mL for group 3-4 mice, 0.9 mg/mL for group 5-6 mice, or 0 mg/mL (diluent only) for group 7-8 mice. These pumps are designed to deliver their contents at a rate of 0.5 μl per hour over a period of 14 days. Using this nominal rate of infusion, dose levels were calculated to be […] and 0 μg/day for groups 7-8. For each pair of groups at a given dose level of IL-TIF, one of the groups was injected three times (days 1, 3, and 5) with 0.1 mg of human zcytor16 Fc protein (described herein) by the interperitoneal route. The other group was injected in the same fashion with vehicle (PBS).
On day 8 of the study, mice were euthanized and an approximately 1 cm square sample of skin surrounding the pump area was collected from each mouse. The skin was fixed in 10% neutral buffered formalin. Formalin fixed samples of skin were embedded in paraffin, routinely processed, sectioned at 5 um and stained with hematoxylin and eosin. The tissues were microscopically examined in blinded fashion by an ACVP board certified veterinary pathologist. This study was scored in a different manner than the previous example. The number of layers in the epidermis, from stratum basalis to stratum granulosum, was determined Based on the results, the sections were scored as follows: O-normal (2-3 layers), 1-mild thickening (3-4 layers), 2-moderate thickening (4-6 layers) and 3-severe thickening (>6 layers).

[3] = IL-TIF-induced acanthosis, subcutaneous mini-osmotic pump; format: in vivo, mice; details: for Average Acanthosis: score 0-4
Protocol: Mice (female, C3H/HEJ, 8 weeks old; Jackson Labs, Bar Harbor, Me.) were divided into three groups of six animals and one group of 4. Human BHK-produced IL-TIF was administered by constant infusion via mini-osmotic pumps, resulting in local and steady state serum concentrations proportional to the concentration of the IL-TIF contained in the pump. Alzet mini-osmotic pumps (model 2002; Alza corporation Palo Alto, Calif.) were loaded under sterile conditions with IL-TIF protein (A601F, 0.22 mL) diluted in phosphate buffered saline (pH 7.0) to a concentration within the pump of 2 mg/mL for group 1 mice, 0.2 mg/mL for group 2 mice, 0.02 mg/mL for group 3 mice, or 0 mg/mL (diluent only) for group 4 mice. Pumps were implanted subcutaneously in mice through a 1 cm incision in the dorsal skin, and the skin was closed with sterile wound closures. These pumps are designed to deliver their contents at a rate of 0.5 μl per hour over a period of 14 days. Using this nominal rate of infusion, dose levels were calculated to be 24 μg/day, 2.4 μg/day, 0.24 μg/day and 0 μg/day for groups 1-4, respectively.
At the end of the 14-day period, the mice were euthanized and an approximately 1 cm square sample of skin surrounding the pump area was collected from each mouse. The skin was fixed in 10% neutral buffered formalin. Formalin fixed samples of skin were embedded in paraffin, routinely processed, sectioned at 5 um and stained with hematoxylin and eosin. The tissues were microscopically examined in blinded fashion by an ACVP board certified veterinary pathologist. […] In addition, the skin of selected groups was imaged with a CoolSnap digital camera (Roper Scientific, Inc., San Diego, Calif.) and epidermal thickness measured using histomorphometry software (Scion Image for Windows, v. 4.02, Scion Corp., Frederick, Md.).

K-562 cells = assay: K-562 cytotoxicity assay (MTT); format: cell-based, human; details: 72 h
Protocol: The K-562 cell line (CRL-243, ATCC) has attained widespread use as a highly sensitive in vitro target for cytotoxicity assays. K-562 blasts are multipotential, hematopoietic malignant cells that spontaneously differentiate into recognizable progenitors of the erythrocytic, granulocytic and monocytic series (Lozzio, B B et al., Proc. Soc. Exp. Biol. Med. 166: 546-550, 1981).
K562 cells were plated at 5,000 cells/well in 96-well tissue culture clusters (Costar) in DMEM phenol-free growth medium (Life Technologies) supplemented with pyruvate and 10% serum (HyClone). Next day, human recombinant IL-TIF (Example 19), BSA control or retinoic acid (known to be cytotoxic to K562 cells) were added. Seventy-two hours later, the vital stain MTT (Sigma, St Louis, Mo.), a widely used indicator of mitochondrial activity and cell growth, was added to the cells at a final concentration of 0.5 mg/ml. MTT is converted to a purple formazan derivative by mitochondrial dehydrogenases. Four hours later, converted MTT was solubilized by adding an equal volume of acidic isopropanol (0.04N HCl in absolute isopropanol) to the wells. Absorbance was measured at 570 nm, with background subtraction at 650 nm. In this experimental setting, absorbance reflects cell viability. Results shown in Table 7 are expressed as % cytotoxicity.

IL-TIF [4] = molecular target: T2, IL-TIF (Homo sapiens, UniProt Q9GZX6); assay: Inhibition of IL-TIF-induced proliferation of BaF3/CRF2-4/zcytor11 cells by soluble receptors; format: cell-based; details: 100 pg/ml IL-TIF
T2 sequence (Q9GZX6 13-179 limits assumed): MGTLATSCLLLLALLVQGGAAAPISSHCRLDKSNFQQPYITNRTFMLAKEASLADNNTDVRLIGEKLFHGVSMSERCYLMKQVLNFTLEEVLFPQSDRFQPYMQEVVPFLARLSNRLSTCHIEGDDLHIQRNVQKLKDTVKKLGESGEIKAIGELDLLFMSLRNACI
Protocol: BaF3/CRF2-4/zcytor11 cells described herein were spun down and washed in PBS 2 times to ensure the removal of the mIL-3, and then spun a third time and re-suspended in the complete media (RPMI 1640, 10% FBS, 1% GlutaMAX, 1% Sodium Pyruvate), but without mIL-3 (hereinafter referred to as “mIL-3 free media”). Cells were then counted in a hemocytometer. Cells were plated in a 96-well format at 5000 cells per well in a volume of 100 μl per well using the mIL-3 free media.
IL-TIF protein (SEQ ID NO:3) was diluted to 200 pg/ml in mIL-3 free media. Zcytor16-Fc4 fusion protein (described herein) was diluted to 1 μg/ml in the mIL-3 free/IL-TIF media on the top row of the plate, and then diluted serially 1:2 down the remaining 7 rows on the 96-well plate, leaving a volume of 100 μl in each well. This was then added to the 100 μl of cells, for a final IL-TIF concentration of 100 pg/ml in all wells, and final Zcytor16-Fc4 concentrations of approximately […], 0.016, and 0.008 μg/ml in a total assay volume of 200 μl. CRF2-4/zcytor11-Fc4 was diluted to 8 μg/ml in the mIL-3 free/IL-TIF media on the top row of the plate, and then diluted serially 1:2 down the remaining 7 rows on the 96-well plate, leaving a volume of 100 μl in each well. This was then added to the 100 μl of cells, for a final IL-TIF concentration of 100 pg/ml in all wells, and final CRF2-4/zcytor11-Fc4 concentrations of approximately […], 0.25, 0.125 and 0.063 μg/ml, in a total assay volume of 200 The assay plates were incubated at 37° C., 5% CO2 for 4 days at which time Alamar Blue (Accumed, Chicago, Ill.) was added at […]. Plates were again incubated at 37° C., 5% CO2 for 16 hours. Alamar Blue gives a fluourometric readout based on number of live cells, and is thus a direct measurement of cell proliferation in comparison to a negative control. Plates were read on the Wallac Victor 2 1420 Multilabel Counter (Wallac, Turku, Finland) at wavelengths 530 (Excitation) and 590 (Emmssion). […] IL-TIF alone stimulated the cells 13-fold over background.

Molecule: dextran sulfate sodium [DSS]
histopathology screening score ([1]; day 2): 8.8
histopathology screening score ([1]; day 7): 21
histopathology screening score ([1]; day 10): 18
colon lengths vs non-treated controls ([1]; days 7 and 10): somewhat shorter

skin histology (IL-TIF [2]; IL-TIF at 2.5, 5, 10 μg/day): epidermal thickening
Average Acanthosis (IL-TIF [2]; pump 2.5 μg IL-TIF/day + 100 μL vehicle (3 injections)): 1.1
Average Acanthosis (IL-TIF [2]; pump 5 μg IL-TIF/day + 100 μL vehicle (3 injections)): 2.0
Average Acanthosis (IL-TIF [2]; pump 10 μg IL-TIF/day + 100 μL vehicle (3 injections)): 2.0
B1: IL-TIF: pro-inflammatory cytokine polypeptide, SEQ ID NO:3; also designated IL-22 (protein, listed as Homo sapiens)
chain: MGTLATSCLLLLALLVQGGAAAPISSHCRLDKSNFQQPYITNRTFMLAKEASLADNNTDVRLIGEKLFHGVSMSERCYLMKQVLNFTLEEVLFPQSDRFQPYMQEVVPFLARLSNRLSTCHIEGDDLHIQRNVQKLKDTVKKLGESGEIKAIGELDLLFMSLRNACI
Average Acanthosis ([3]; 0.24 μg IL-TIF/day, 14 days): 2.2
Measured Thickness ([3]; 2.4 μg IL-TIF/day, 14 days): 67.5 pixels
Average Acanthosis ([3]; 2.4 μg IL-TIF/day, 14 days): 2.4
Average Acanthosis ([3]; 24 μg IL-TIF/day, 14 days): 3.0
skin histology ([3]; 2.4 and 24 μg/day): epidermal thickening
cell infiltrates ([3]; not observed in vehicle treated controls): mononuclear cell infiltrates in the epidermis
% Cytotoxicity (K-562 cells; 100 ng/ml): 16.2%
% Cytotoxicity (K-562 cells; 300 ng/ml): 32%

concentrations completely inhibiting proliferation (IL-TIF [4]): 8 µg/mL
concentrations partially inhibiting proliferation (IL-TIF [4]): 0.125 to 4 µg/mL
inhibition of the proliferative effect of IL-TIF (IL-TIF [4]): much weaker inhibition
inhibition at lowest concentration (IL-TIF [4]; 63 ng/ml): barely detectable
B2: CRF2-4/zcytor11-Fc4: secreted heterodimer of extracellular domains of hzcytor11 and CRF2-4, each fused to Fc4 (protein)
chain 1: HAPEDPSDLLQHVKFQSSNFENILTWDSGPEGTPDTVYSIEYKTYGERDWVAKKGCQRITRKSCNLTVETGNLTELYYARVTAVSAGGRSATKMTDRFSSLQHTTLKPPDVTCISKVRSIQMIVHPTPTPIRAGDGHRLTLEDIFHDLFYHLELQVNRTYQMHLGGKQREYEFFGLTPDTEFLGTIMICVPTWAKESAPYMCRVKTLPDRTWTGSGSGSGSEPRSSDKTHTCPPCPAPEAEGAPSVFLFPPKPKDTLMISRTPEVTCVVVDVSHEDPEVKFNWYVDGVEVHNAKTKPREEQYNSTYRVVSVLTVLHQDWLNGKEYKCKVSNKALPSSIEKTISKAKGQPREPQVYTLPPSRDELTKNQVSLTCLVKGFYPSDIAVEWESNGQPENNYKTTPPVLDSDGSFFLYSKLTVDKSRWQQGNVFSCSVMHEALHNHYTQKSLSLSPGKLVPRGSGSGGEYMPME
chain 2: MVPPPENVRMNSVNFKNILQWESPAFAKGNLTFTAQYLSYRIFQDKCMNTTLTECDFSSLSKYGDHTLRVRAEFADEHSDWVNITFCPVDDTIIGPPGMQVEVLDDSLHMRFLAPKIENEYETWTMKNVYNSWTYNVQYWKNGTDEKFQITPQYDFEVLRNLEPWTTYCVQVRGFLPDRNKAGEWSEPVCEQTTHDETVPSGSGSGSGSEPRSSDKTHTCPPCPAPEAEGAPSVFLFPPKPKDTLMISRTPEVTCVVVDVSHEDPEVKFNWYVDGVEVHNAKTKPREEQYNSTYRVVSVLTVLHQDWLNGKEYKCKVSNKALPSSIEKTISKAKGQPREPQVYTLPPSRDELTKNQVSLTCLVKGFYPSDIAVEWESNGQPENNYKTTPPVLDSDGSFFLYSKLTVDKSRWQQGNVFSCSVMHEALHNHYTQKSLSLSPGKGSGGHHHHHH
modifications: left off: small tags and cut ends
notes: secreted heterodimer of extracellular domains of hzcytor11 and CRF2-4, each fused to Fc4
